Experimental data taken from patent publication US20210107998A1 (Boehringer Ingelheim, published 2021).

T1: Recombinant human IL-23 (human, UniProt P29460 23-328)
T1 construct: also called hu IL23
T1 sequence 1: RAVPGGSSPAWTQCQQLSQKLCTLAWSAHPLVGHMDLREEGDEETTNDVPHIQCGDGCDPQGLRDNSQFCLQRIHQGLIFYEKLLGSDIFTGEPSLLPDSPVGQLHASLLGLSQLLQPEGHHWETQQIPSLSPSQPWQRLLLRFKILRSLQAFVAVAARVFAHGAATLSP
T1 sequence 2: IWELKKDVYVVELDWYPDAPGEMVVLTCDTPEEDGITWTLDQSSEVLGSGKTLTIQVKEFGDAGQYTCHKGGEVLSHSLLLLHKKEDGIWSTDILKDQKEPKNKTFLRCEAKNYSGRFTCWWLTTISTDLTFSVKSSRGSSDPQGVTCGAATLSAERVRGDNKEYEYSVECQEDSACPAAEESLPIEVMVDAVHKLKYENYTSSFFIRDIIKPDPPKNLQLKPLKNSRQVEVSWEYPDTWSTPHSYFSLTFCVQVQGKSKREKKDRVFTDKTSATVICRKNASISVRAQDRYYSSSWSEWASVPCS

T2: Linked human IL-23 (Boehringer Ingelheim Pharmaceuticals, Inc.) (human, UniProt P29460 23-328)
T2 sequence 1: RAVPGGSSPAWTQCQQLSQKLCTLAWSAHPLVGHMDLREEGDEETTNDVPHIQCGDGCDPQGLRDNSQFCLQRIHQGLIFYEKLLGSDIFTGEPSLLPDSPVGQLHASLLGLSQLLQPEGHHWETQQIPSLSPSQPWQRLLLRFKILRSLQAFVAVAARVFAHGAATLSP
T2 sequence 2: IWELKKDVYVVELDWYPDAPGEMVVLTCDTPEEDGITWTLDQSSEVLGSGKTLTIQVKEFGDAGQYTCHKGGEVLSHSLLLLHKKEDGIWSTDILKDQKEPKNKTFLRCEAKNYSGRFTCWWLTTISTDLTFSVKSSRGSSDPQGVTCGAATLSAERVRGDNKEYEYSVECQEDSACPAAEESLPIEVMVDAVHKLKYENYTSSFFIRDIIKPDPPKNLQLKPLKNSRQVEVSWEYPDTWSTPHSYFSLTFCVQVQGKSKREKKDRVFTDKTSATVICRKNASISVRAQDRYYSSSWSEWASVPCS


Experiments:
[1] = molecular target: T3, Recombinant human BAFF trimer (Boehringer Ingelheim Pharmaceuticals, Inc.) (human, UniProt Q9Y275 134-285, limits assumed); assay: cell-based or functional assay
[2] = molecular target: Recombinant cynomolgus BAFF trimer (Boehringer Ingelheim Pharmaceuticals, Inc.) (cynomolgus, UniProt A0A2K5V2X4 134-285); assay: cell-based or functional assay
[3] = molecular target: membrane-bound human BAFF on fixed CHO-K1 cells (human, UniProt Q9Y275 1-285); assay: cell-based or functional assay
[4] = molecular target: Recombinant human BAFF 60mer (Boehringer Ingelheim Pharmaceuticals, Inc.) (human, UniProt Q9Y275 134-285, limits assumed); assay: cell-based or functional assay
[5] = molecular target: T3, Recombinant human BAFF trimer …; assay: cell-based or functional assay; remark: listed apart in the source
[6] = molecular target: T4, human BAFF (human, UniProt Q9Y275 134-285, limits assumed); assay: cell-based or functional assay
[7] = molecular target: T4, human BAFF; assay: BLI (Octet RED96, streptavidin tips), compound incubated 48 h at 37 C in whole blood vs kinetic buffer
Method: (§1) A whole blood interference assay was developed on an Octet RED96 to detect the effects of non-specific binding or off-target binding for compounds in the presence of whole blood (WB). The compound solutions in whole blood and 1× kinetic running buffer (1×kb) were incubated at a temperature of 37° C. for 48 hours. Kinetic measurements for the incubated compound samples were performed with an Octet RED96 equipped with streptavidin (SA) biosensor tips (ForteBio, Menlo Park, Calif.) at 27° C. The ratio of the on-rates/binding signals in buffer and whole blood were reported. A ratio <2 was considered to show no interference.

[8] = molecular target: T1, Recombinant human IL-23; assay: as above
Method: as §1

[9] = molecular target: T1, Recombinant human IL-23; assay: cell-based or functional assay
[10] = molecular target: T4, human BAFF; assay: SPR (ProteOn XPR36), compound captured on goat anti-human IgG Fc, antigen injected
Method: (§2) SPR experiments were performed on a ProteOn XPR36 instrument (Bio Rad). A GLM chip was preconditioned with sequential injections of 60 sec of 0.5% SDS, 50 mM NaOH, and 100 mM HCl at a flow rate of 30 μl/min both vertical and horizontal directions.
(§3) The preconditioned GLM chip was then activated by an injection of EDC (76.7 mg/ml) and sulfo-NHS (21.7 mg/ml) mixture with ratio of 1:1 in 6 horizontal channels. Goat-anti-human IgG (GAHA) Fc gamma (Invitrogen) at a concentration of 30 μg/ml in 10 mM, pH 5.0 sodium acetate buffer was immobilized to 8,000 resonance units on the activated GLM chip in 6 horizontal channels. The chip was finally deactivated with 1 M ethanolamine HCl in 6 horizontal channels. The prepared GAHA chip was rotated to vertical direction to capture test compounds, over 5 vertical channels and the last channel was used as a column reference. The captured chip was then rotated again to the horizontal direction for binding. […] The dissociation was allowed for 2 hour. The GAHA surface was regenerated using short pulse injection (18 seconds) of 0.85% phosphoric acid (Bio Rad) at a flow rate of 100 μl/min both horizontal and vertical directions after 10 min association and 2 hr dissociation. The regenerated GAHA was ready for another binding cycle.

[11] = molecular target: T5, cynomolgus BAFF (cynomolgus, UniProt A0A2K5V2X4 134-285); assay: as above
T5 construct: construct not described
Method: as §2, §3

[12] = molecular target: T2, Linked human IL-23 (Boehringer …); assay: as above
Method: as §2, §3

[13] = molecular target: T6, cynomolgus IL-23 (cynomolgus, UniProt H6WS56 20-189); assay: as above
Method: as §2, §3

[14] = molecular target: T1, Recombinant human IL-23; assay: cell-based or functional assay; remark: listed apart in the source
[15] = molecular target: T6, cynomolgus IL-23; assay: cell-based or functional assay

| IC50 Geomean, NFkB luciferase reporter, human TACI-CHO cells [1] [nM] | IC90 Geomean, NFkB luciferase reporter, human TACI-CHO cells [1] [nM] | IC50 Geomean, NFkB luciferase reporter, human BAFFR-CHO cells [2] [nM] | IC90 Geomean, NFkB luciferase reporter, human BAFFR-CHO cells [2] [nM] | IC50, NFkB luciferase reporter, human BAFFR-CHO cells stimulated with fixed human BAFF CHO-K1 cells [3] [nM] | IC90, NFkB luciferase reporter, human BAFFR-CHO cells stimulated with fixed human BAFF CHO-K1 cells [3] [nM] | IC50, NFkB luciferase reporter, human BAFFR-CHO cells [4] [nM] | IC90, NFkB luciferase reporter, human BAFFR-CHO cells [4] [nM] | IC50, NFkB luciferase reporter, human BAFFR-CHO cells [5] [nM] | IC90, NFkB luciferase reporter, human BAFFR-CHO cells [5] [nM] | Ratio of binding signal in WB/kinetic buffer [7] | Ratio of binding signal in WB/kinetic buffer [8] | IC50, STAT3-luciferase reporter in DB lymphoblast B cells [9] [nM] | IC90, STAT3-luciferase reporter in DB lymphoblast B cells [9] [nM] | Kd [10] [nM] | Kd [11] [nM] | Kd [12] [nM] | Kd [13] [nM] | IC50, IL-23-induced mouse IL-17 release from mouse splenocytes [14] [nM] | IC90, IL-23-induced mouse IL-17 release from mouse splenocytes [14] [nM] | Binder | further results |
| --- | --- | --- | --- | --- | --- | --- | --- | --- | --- | --- | --- | --- | --- | --- | --- | --- | --- | --- | --- | --- | --- |
| 0.241 | 0.618 | 0.257 | 0.588 | 0.25 | 2.92 | 0.015 | 0.038 | 0.07 | 0.417 |  |  |  |  |  |  |  |  |  |  | Control Antibody 3 (anti-BAFF monoclonal antibody) (BAFF (3)) (antibody, V domains shown) VH: QVQLQQWGAGLLKPSETLSLTCAVYGGSFSGYYWSWIRQPPGKGLEWIGEINHSGSTNYNPSLKSRVTISVDTSKNQFSLKLSSVTAADTAVYYCARGYYDILTGYYYYFDYWGQGTLVTVSS VL: EIVLTQSPATLSLSPGERATLSCRASQSVSRYLAWYQQKPGQAPRLLIYDASNRATGIPARFSGSGSGTDSTLTISSLEPEDFAVYYCQQRSNWPRTFGQGTKVEIK | IC50, 3H-thymidine incorporation, primary human B cells stimulated with anti-IgM and hBAFF [6]: 0.0873 nM |
| 0.159 | 0.417 | 0.132 | 0.191 | 0.118 | 1.02 | 0.006 | 0.019 | 0.043 | 0.18 | 1.2 | 1.1 | 0.145 | 1.23 | < 0.015 | < 0.015 | < 0.015 | < 0.015 | 0.146 | 1.65 | Compound A (bispecific antibody, human IgG1, kappa, L234A L235A, Made in CHO-S cells) chain 1: DIQMTQSPSSLSASVGDRVTITCKASRDVAIAVAWYQQKPGKVPKLLIYWASTRHTGVPSRFSGSGSRTDFTLTISSLQPEDVADYFCHQYSSYPFTFGSGTKLEIKGGGSGGGGQVQLVQSGAEVKKPGASVKVSCKASGYSFSTFFIHWVRQAPGQGLEWIGRIDPNSGATKYNEKFESRVTMTRDTSISTAYMELSRLRSDDTAVYYCARGEDLLIRTDALDYWGQGTSVTVSSLGGGSGASTKGPSVFPLAPSSKSTSGGTAALGCLVKDYFPEPVTVSWNSGALTSGVHTFPAVLQSSGLYSLSSVVTVPSSSLGTQTYICNVNHKPSNTKVDKRVEPKSCDKTHTCPPCPAPEAAGGPSVFLFPPKPKDTLYITREPEVTCVVVDVSHEDPEVKFNWYVDGVEVHNAKTKPREEQYNSTYRVVSVLTVLHQDWLNGKEYKCKVSNKALPAPIEKTISKAKGQPREPQVYTLPPSREEMTKNQVSLTCLVKGFYPSDIAVEWESNGQPENNYKTTPPVLDSDGSFFLYSKLTVDKSRWQQGNVFSCSVMHEALHNHYTQKSLSLSPG chain 2: DIQMTQSPSSLSASVGDRVSITCKASQNAGIDVAWFQQKPGKAPKLLIYSKSNRYTGVPSRFSGSGSGTDFTLTISSLQPEDFATYYCLQYRSYPRTFGQGTKLEIKGGGSGGGGQVQLVQSGAEVKKPGSSVKVSCKASGYTFTDQTIHWMRQAPGQGLEWIGYIYPRDDSPKYNENFKGKVTITADKSTSTAYMELSSLRSEDTAVYYCAIPDRSGYAWFIYWGQGTLVTVSSLGGGSGRTVAAPSVFIFPPSDEQLKSGTASVVCLLNNFYPREAKVQWKVDNALQSGNSQESVTEQDSKDSTYSLSSTLTLSKADYEKHKVYACEVTHQGLSSPVTKSFNRGEC | IC50, IL-23-induced mouse IL-17 release from mouse splenocytes [15]: 0.155 nM; IC90, IL-23-induced mouse IL-17 release from mouse splenocytes [15]: 1.31 nM |
| 0.163 | 0.436 | 0.118 | 0.248 | 0.104 | 0.938 | 0.004 | 0.012 | 0.034 | 0.172 | 1.3 | 1.7 | 0.128 | 3.09 | < 0.015 | < 0.015 | < 0.015 | < 0.015 | 0.105 | 1.7 | Compound D (bispecific antibody, human IgG4 S228P, kappa, Large chain: IL23A(1) VL - BAFF(6) VH - LGGGSG - IgG4-Pro-YTE; small chain: BAFF(6) VL - IL23A(1) VH - LGGGSG - CL; Tetravalent format) chain 1: DIQMTQSPSSLSASVGDRVTITCKASRDVAIAVAWYQQKPGKVPKLLIYWASTRHTGVPSRFSGSGSRTDFTLTISSLQPEDVADYFCHQYSSYPFTFGSGTKLEIKGGGSGGGGQVQLVQSGAEVKKPGASVKVSCKASGYSFSTFFIHWVRQRPGQGLEWIGRIDPNSGATKYNEKFESKVTLTRDTSISTAYMELSRLRSDDTAVYYCARGEDLLIRTDALDYWGQGTSVTVSSLGGGSGASTKGPSVFPLAPCSRSTSESTAALGCLVKDYFPEPVTVSWNSGALTSGVHTFPAVLQSSGLYSLSSVVTVPSSSLGTKTYTCNVDHKPSNTKVDKRVESKYGPPCPPCPAPEFLGGPSVFLFPPKPKDTLYITREPEVTCVVVDVSQEDPEVQFNWYVDGVEVHNAKTKPREEQFNSTYRVVSVLTVLHQDWLNGKEYKCKVSNKGLPSSIEKTISKAKGQPREPQVYTLPPSQEEMTKNQVSLTCLVKGFYPSDIAVEWESNGQPENNYKTTPPVLDSDGSFFLYSRLTVDKSRWQEGNVFSCSVMHEALHNHYTQKSLSLSLG chain 2: DIQMTQSPSSLSASVGDRVSITCKASQNAGIDVAWFQQKPGKAPKLLIYSKSNRYTGVPSRFSGSGSGTDFTLTISSLQPEDFADYYCLQYRSYPRTFGGGTKLEIKGGGSGGGGQVQLVQSGAEVKKPGSSVKVSCKASGYTFTDQTIHWMRQAPGQGLEWIGYIYPRDDSPKYNENFKGKVTITADKSTSTAYMELSSLRSEDTAVYYCAIPDRSGYAWFIYWGQGTLVTVSSLGGGSGRTVAAPSVFIFPPSDEQLKSGTASVVCLLNNFYPREAKVQWKVDNALQSGNSQESVTEQDSKDSTYSLSSTLTLSKADYEKHKVYACEVTHQGLSSPVTKSFNRGEC | IC50, IL-23-induced mouse IL-17 release from mouse splenocytes [15]: 0.097 nM; IC90, IL-23-induced mouse IL-17 release from mouse splenocytes [15]: 1.55 nM |
